According to paper PMC7077807:

Target: Synaptotagmin II, P29101
Test: BLI

Synaptotagmin II, P29101, sequence (P29101 40-60): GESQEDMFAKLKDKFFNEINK

B1: BoNT/B HC HC, P10844 (protein)
chain: SEILNNIILNLRYKDNNLIDLSGYGAKVEVYDGVELNDKNQFKLTSSANSKIRVTQNQNIIFNSVFLDFSVSFWIRIPKYKNDGIQNYIHNEYTIINCMKNNSGWKISIRGNRIIWTLIDINGKTKSVFFEYNIREDISEYINRWFFVTITNNLNNAKIYINGKLESNTDIKDIREVIANGEIIFKLDGDIDRTQFIWMKYFSIFNTELSQSNIEERYKIQSYSEYLKDFWGNPLMYNKEYYMFNAGNKNSYIKLKKDSPVGEILTRSKYNQNSKYINYRDLYIGEKFIIRRKSNSQSINDDIVRKEDYIYLDFFNLNQEWRVYTYKYFKKEEEKLFLAPISDSDEFYNTIQIKEYDEQPTYSCQLLFKKDEESTDEIGLIGIHRFYESGIVFEEYKDYFCISKWYLKEVKRKPYNLKLGCNWQFIPKDEGWTE
B1 was tested, and the Kd was 51 µM.
